Results published in US20220265711A1 (NANJING LEGEND BIOTECH, published 2022).

B1: CAR No. 6 (anti-CD4 chimeric antigen receptor) (other)
chain: QIQLVQSGPELKKPGETVKISCKASGYTFTNYGMNWVKQAPGKGLKCMGWINTNTGEPTYAEEFKGRFAFSLETSATTAFLQINNLKDEDTATYFCARLGLYYDYGYYAMDYWGQGASVTVSSGGGGSGGGGSGGGGSNIVLTQSPASLAVSLGQRATISCRASESVDSYGNSFMHWYQQKPGQPPKLFIYLASNLESGVPARFSGSGSRTDFTLTIDPVEADDAATYYCQQNNEDPYTFGGGTKLEIKTTTPAPRPPTPAPTIASQPLSLRPEACRPAAGGAVHTRGLDFACDIYIWAPLAGTCGVLLLSLVITLYCKRGRKKLLYIFKQPFMRPVQTTQEEDGCSCRFPEEEEGGCELRVKFSRSADAPAYKQGQNQLYNELNLGRREEYDVLDKRRGRDPEMGGKPRRKNPQEGLYNELQKDKMAEAYSEIGMKGERRRGKGHDGLYQGLSTATKDTYDALHMQALPPR
B2: CAR No. 4 (anti-CD4 chimeric antigen receptor, scFv derived from SK3) (other)
chain: QVQLQQSGPELVKPGASVKMSCKASGYTFTDYVINWVKQRTGQGLEWIGETYTGSGSSYYNEKFKDKATLTVDKASNIAYMQLSSLTSEDSAVYFCARRGKGTGFAFWGQGTLVTVSAGGGGSGGGGSGGGGSDIVLTQSPASLAVSLGQRATISCKASQSVDYDGDSYMNWYQQKPGQPPKLLIYAASNLESGIPARFTGSGSGTDFTLNIHPVEEEDTATYYCQQSYEDPPTFAGGTNLEIKTTTPAPRPPTPAPTIASQPLSLRPEACRPAAGGAVHTRGLDFACDIYIWAPLAGTCGVLLLSLVITLYCKRGRKKLLYIFKQPFMRPVQTTQEEDGCSCRFPEEEEGGCELRVKFSRSADAPAYKQGQNQLYNELNLGRREEYDVLDKRRGRDPEMGGKPRRKNPQEGLYNELQKDKMAEAYSEIGMKGERRRGKGHDGLYQGLSTATKDTYDALHMQALPPR
B3: CAR No. 3 (anti-CD4 chimeric antigen receptor, Tregalizumab VH/VL) (other)
chain: EEQLVESGGGLVKPGGSLRLSCAASGFSFSDCRMYWLRQAPGKGLEWIGVISVKSENYGANYAESVRGRFTISRDDSKNTVYLQMNSLKTEDTAVYYCSASYYRYDVGAWFAYWGQGTLVTVSSAGGGGSGGGGSGGGGSDIVMTQSPDSLAVSLGERATINCRASKSVSTSGYSYIYWYQQKPGQPPKLLIYLASILESGVPDRFSGSGSGTDFTLTISSLQAEDVAVYYCQHSRELPWTFGQGTKVEIKRTTTPAPRPPTPAPTIASQPLSLRPEACRPAAGGAVHTRGLDFACDIYIWAPLAGTCGVLLLSLVITLYCKRGRKKLLYIFKQPFMRPVQTTQEEDGCSCRFPEEEEGGCELRVKFSRSADAPAYKQGQNQLYNELNLGRREEYDVLDKRRGRDPEMGGKPRRKNPQEGLYNELQKDKMAEAYSEIGMKGERRRGKGHDGLYQGLSTATKDTYDALHMQALPPR
B4: Ibalizumab (antibody, V domains shown)
VH: QVQLQQSGPEVVKPGASVKMSCKASGYTFTSYVIHWVRQKPGQGLDWIGYINPYNDGTDYDEKFKGKATLTSDTSTSTAYMELSSLRSEDTAVYYCAREKDNYATGAWFAYWGQGTLVTVSS
VL: DIVMTQSPDSLAVSLGERVTMNCKSSQSLLYSTNQKNYLAWYQQKPGQSPKLLIYWASTRESGVPDRFSGSGSGTDFTLTISSVQAEDVAVYYCQQYYSYRTFGGGTKLEIKR
notes: also called Ibalizumab monoclonal antibody
B5: Tregalizumab (antibody, V domains shown)
VH: EEQLVESGGGLVKPGGSLRLSCAASGFSFSDCRMYWLRQAPGKGLEWIGVISVKSENYGANYAESVRGRFTISRDDSKNTVYLQMNSLKTEDTAVYYCSASYYRYDVGAWFAYWGQGTLVTVSS
VL: DIVMTQSPDSLAVSLGERATINCRASKSVSTSGYSYIYWYQQKPGQPPKLLIYLASILESGVPDRFSGSGSGTDFTLTISSLQAEDVAVYYCQHSRELPWTFGQGTKVEIKR
notes: also called Tregalizumab monoclonal antibody

What was measured:
human CD4 = human CD4 (human, UniProt P01730 26-458); experiment: cell-based or functional assay
[1] = target: T1, hybrid CD4 protein: mouse CD4 backbone with human CD4 Domain 1 (human; mouse, UniProt P06332 129-457, limits assumed); experiment: flow cytometry on HEK293-6E cells expressing mouse CD4 with human CD4 domain 1, against isotype control
T1 construct: Transiently expressed on HEK-293 cells from the pcDNA3.4 vector; also called D1
Excerpt: (§1) CD4 is a member of immunoglobulin superfamily. It contains four extracellular immunoglobulin domains, Domain 1 to 4 from distal to proximal to cell membrane. The four CD4 extracellular domains and its intracellular domain were named D1-D5 and were expressed transiently with a mouse CD4 backbone in HEK-293 cells. The three antibodies were used to detect human CD4 D1-D5 expression by flow cytometry on these 293 cells.

HEK293-6E/domain5 = target: T2, HEK293-6E/domain5 (Mus musculus;Homo sapiens, UniProt P06332;P01730); experiment: flow cytometry on HEK293-6E cells expressing mouse CD4 with human CD4 domain 5 (intracellular), against isotype control
T2 construct: full-length backbone without its own intracellular domain;single domain inserted in the mouse backbone; transiently expressed on HEK-293 cells; the human part is intracellular, the extracellular part is mouse CD4; also called hybrid CD4 protein: mouse CD4 backbone with human CD4 intracellular domain; D5
Excerpt: as §1

T2 sequence (P06332 other isoform, or with tags, fused parts or gaps limits assumed): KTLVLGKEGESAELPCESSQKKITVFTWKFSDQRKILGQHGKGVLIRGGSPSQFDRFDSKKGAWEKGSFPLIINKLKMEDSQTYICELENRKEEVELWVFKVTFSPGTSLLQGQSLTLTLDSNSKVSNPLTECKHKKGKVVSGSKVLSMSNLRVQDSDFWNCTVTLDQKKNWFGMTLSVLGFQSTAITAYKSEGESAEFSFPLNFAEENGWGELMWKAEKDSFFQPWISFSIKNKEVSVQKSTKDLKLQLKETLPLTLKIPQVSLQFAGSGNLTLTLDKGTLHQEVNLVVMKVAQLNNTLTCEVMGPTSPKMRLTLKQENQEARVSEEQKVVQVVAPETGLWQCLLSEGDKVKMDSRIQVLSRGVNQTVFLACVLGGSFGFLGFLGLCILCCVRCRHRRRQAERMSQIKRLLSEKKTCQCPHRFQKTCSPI
T1 sequence (P06332 other isoform, or with tags, fused parts or gaps limits assumed): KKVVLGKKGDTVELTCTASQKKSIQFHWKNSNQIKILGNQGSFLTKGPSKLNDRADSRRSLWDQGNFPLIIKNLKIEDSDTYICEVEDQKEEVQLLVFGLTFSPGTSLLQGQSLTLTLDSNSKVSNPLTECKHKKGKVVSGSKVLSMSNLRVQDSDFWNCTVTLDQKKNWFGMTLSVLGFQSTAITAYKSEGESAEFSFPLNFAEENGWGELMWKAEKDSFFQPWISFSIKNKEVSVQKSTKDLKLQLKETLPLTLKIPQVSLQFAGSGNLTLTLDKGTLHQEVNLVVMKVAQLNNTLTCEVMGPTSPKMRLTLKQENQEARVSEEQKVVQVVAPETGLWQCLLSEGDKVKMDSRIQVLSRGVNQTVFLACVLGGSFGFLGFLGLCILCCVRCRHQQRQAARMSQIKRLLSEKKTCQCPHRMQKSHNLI

Binder	CD4+ cells in the effector population after 24 h co-culture (18.9% in UNT control) (human CD4) [%]	binding result [1]	binding result (HEK293-6E/domain5)
B1	13.1	–	–
B2	0	–	–
B3	12.5	–	–
B4	–	no binding	no binding
B5	–	no binding	no binding
